Source: FireProtDB (doi:10.1021/bi9910169)

B1: Lysozyme C, P61626 (parent)
chain: MKALIVLGLVLLSVTVQGKVFERCELARTLKRLGMDGYRGISLANWMCLAKWESGYNTRATNYNAGDRSTDYGIFQINSRYWCNDGKTPGAVNACHLSCSALLQDNIADAVACAKRVVRDPQGIRAWVAWRNRCQNRDVRQYVQGCGV

Variants of: B1
Details: Homo sapiens; pH 2.5; Thermal; DSC; glycine-HCl 0.05 M; reversible: yes; structure 1LZ1; whole UniProt chain shown

Variant | Tm [°C] | unfolding enthalpy (calorimetric) [kcal/mol] | unfolding enthalpy (van 't Hoff) [kcal/mol]
MKALIVLGLVLLSVTVQGKVFERCELARTLKRLGMDGYRGISLANWMCLAKWESGYNVRATNYNAGDRSTDYGIFQINSRYWCNDGKTPGAVNACHLSCSALLQDNIADAVACAKRVVRDPQGIRAWVAWRNRCQNRDVRQYVQGCGV [T58V] | 57 | 96.6 | 104
MKALIVLGLVLLSVTVQGKVFERCELARTLKRLGMDGYRGISLANWMCLAKWESGYNARATNYNAGDRSTDYGIFQINSRYWCNDGKTPGAVNACHLSCSALLQDNIADAVACAKRVVRDPQGIRAWVAWRNRCQNRDVRQYVQGCGV [T58A] | 56.6 | 97.5 | 103
MKALIVLGLVLLSVTVQGKVFERCELARTLKRLGMDGYRGISLANWMCLAKWESGYNTRATNYNAGDRSTDYGIFQINSRYWCNDGKAPGAVNACHLSCSALLQDNIADAVACAKRVVRDPQGIRAWVAWRNRCQNRDVRQYVQGCGV [T88A] | 57.3 | 98.5 | 99.9
MKALIVLGLVLLSVTVQGKVFERCELARTLKRLGMDGYRGISLANWMCLAKWESGYNTRATNYNAGDRSTDYGIFQINSRYWCNDGKVPGAVNACHLSCSALLQDNIADAVACAKRVVRDPQGIRAWVAWRNRCQNRDVRQYVQGCGV [T88V] | 59.5 | 102 | 106

Same assay, conditions: Homo sapiens; pH 2.7; Thermal; DSC; glycine-HCl 0.05 M; reversible: yes; structure 1LZ1; whole UniProt chain shown

Variant | Tm [°C] | unfolding enthalpy (calorimetric) [kcal/mol] | unfolding enthalpy (van 't Hoff) [kcal/mol]
MKALIVLGLVLLSVTVQGKVFERCELARTLKRLGMDGYRGISLANWMCLAKWESGYNVRATNYNAGDRSTDYGIFQINSRYWCNDGKTPGAVNACHLSCSALLQDNIADAVACAKRVVRDPQGIRAWVAWRNRCQNRDVRQYVQGCGV [T58V] | 59.2 | 93 | 99.9
MKALIVLGLVLLSVTVQGKVFERCELARTLKRLGMDGYRGISLANWMCLAKWESGYNARATNYNAGDRSTDYGIFQINSRYWCNDGKTPGAVNACHLSCSALLQDNIADAVACAKRVVRDPQGIRAWVAWRNRCQNRDVRQYVQGCGV [T58A] | 59.4 | 99.9 | 102
MKALIVLGLVLLSVTVQGKVFERCELARTLKRLGMDGYRGISLANWMCLAKWESGYNTRATNYNAGDRSTDYGIFQINSRYWCNDGKAPGAVNACHLSCSALLQDNIADAVACAKRVVRDPQGIRAWVAWRNRCQNRDVRQYVQGCGV [T88A] | 60 | 101 | 104
MKALIVLGLVLLSVTVQGKVFERCELARTLKRLGMDGYRGISLANWMCLAKWESGYNTRATNYNAGDRSTDYGIFQINSRYWCNDGKVPGAVNACHLSCSALLQDNIADAVACAKRVVRDPQGIRAWVAWRNRCQNRDVRQYVQGCGV [T88V] | 62.6 | 107 | 111

Same assay, conditions: Homo sapiens; pH 2.85; Thermal; DSC; glycine-HCl 0.05 M; reversible: yes; structure 1LZ1; whole UniProt chain shown

Variant | Tm [°C] | unfolding enthalpy (calorimetric) [kcal/mol] | unfolding enthalpy (van 't Hoff) [kcal/mol]
MKALIVLGLVLLSVTVQGKVFERCELARTLKRLGMDGYRGISLANWMCLAKWESGYNVRATNYNAGDRSTDYGIFQINSRYWCNDGKTPGAVNACHLSCSALLQDNIADAVACAKRVVRDPQGIRAWVAWRNRCQNRDVRQYVQGCGV [T58V] | 63.2 | 110 | 113
MKALIVLGLVLLSVTVQGKVFERCELARTLKRLGMDGYRGISLANWMCLAKWESGYNARATNYNAGDRSTDYGIFQINSRYWCNDGKTPGAVNACHLSCSALLQDNIADAVACAKRVVRDPQGIRAWVAWRNRCQNRDVRQYVQGCGV [T58A] | 63.3 | 107 | 114
MKALIVLGLVLLSVTVQGKVFERCELARTLKRLGMDGYRGISLANWMCLAKWESGYNTRATNYNAGDRSTDYGIFQINSRYWCNDGKAPGAVNACHLSCSALLQDNIADAVACAKRVVRDPQGIRAWVAWRNRCQNRDVRQYVQGCGV [T88A] | 62.2 | 103 | 106
MKALIVLGLVLLSVTVQGKVFERCELARTLKRLGMDGYRGISLANWMCLAKWESGYNTRATNYNAGDRSTDYGIFQINSRYWCNDGKVPGAVNACHLSCSALLQDNIADAVACAKRVVRDPQGIRAWVAWRNRCQNRDVRQYVQGCGV [T88V] | 65.3 | 112 | 117

Same assay, conditions: Homo sapiens; pH 3; Thermal; DSC; glycine-HCl 0.05 M; reversible: yes; structure 1LZ1; whole UniProt chain shown

Variant | Tm [°C] | unfolding enthalpy (calorimetric) [kcal/mol] | unfolding enthalpy (van 't Hoff) [kcal/mol]
MKALIVLGLVLLSVTVQGKVFERCELARTLKRLGMDGYRGISLANWMCLAKWESGYNVRATNYNAGDRSTDYGIFQINSRYWCNDGKTPGAVNACHLSCSALLQDNIADAVACAKRVVRDPQGIRAWVAWRNRCQNRDVRQYVQGCGV [T58V] | 66.3 | 112 | 119
MKALIVLGLVLLSVTVQGKVFERCELARTLKRLGMDGYRGISLANWMCLAKWESGYNARATNYNAGDRSTDYGIFQINSRYWCNDGKTPGAVNACHLSCSALLQDNIADAVACAKRVVRDPQGIRAWVAWRNRCQNRDVRQYVQGCGV [T58A] | 66.5 | 114 | 117
MKALIVLGLVLLSVTVQGKVFERCELARTLKRLGMDGYRGISLANWMCLAKWESGYNTRATNYNAGDRSTDYGIFQINSRYWCNDGKAPGAVNACHLSCSALLQDNIADAVACAKRVVRDPQGIRAWVAWRNRCQNRDVRQYVQGCGV [T88A] | 64.7 | 107 | 110
MKALIVLGLVLLSVTVQGKVFERCELARTLKRLGMDGYRGISLANWMCLAKWESGYNTRATNYNAGDRSTDYGIFQINSRYWCNDGKVPGAVNACHLSCSALLQDNIADAVACAKRVVRDPQGIRAWVAWRNRCQNRDVRQYVQGCGV [T88V] | 67.6 | 115 | 121

Same assay, conditions: Homo sapiens; pH 3.1; Thermal; DSC; glycine-HCl 0.05 M; reversible: yes; structure 1LZ1; whole UniProt chain shown

Variant | Tm [°C] | unfolding enthalpy (calorimetric) [kcal/mol] | unfolding enthalpy (van 't Hoff) [kcal/mol]
MKALIVLGLVLLSVTVQGKVFERCELARTLKRLGMDGYRGISLANWMCLAKWESGYNVRATNYNAGDRSTDYGIFQINSRYWCNDGKTPGAVNACHLSCSALLQDNIADAVACAKRVVRDPQGIRAWVAWRNRCQNRDVRQYVQGCGV [T58V] | 68.7 | 115 | 123
MKALIVLGLVLLSVTVQGKVFERCELARTLKRLGMDGYRGISLANWMCLAKWESGYNARATNYNAGDRSTDYGIFQINSRYWCNDGKTPGAVNACHLSCSALLQDNIADAVACAKRVVRDPQGIRAWVAWRNRCQNRDVRQYVQGCGV [T58A] | 68.6 | 117 | 121
MKALIVLGLVLLSVTVQGKVFERCELARTLKRLGMDGYRGISLANWMCLAKWESGYNTRATNYNAGDRSTDYGIFQINSRYWCNDGKAPGAVNACHLSCSALLQDNIADAVACAKRVVRDPQGIRAWVAWRNRCQNRDVRQYVQGCGV [T88A] | 67.1 | 110 | 113
MKALIVLGLVLLSVTVQGKVFERCELARTLKRLGMDGYRGISLANWMCLAKWESGYNTRATNYNAGDRSTDYGIFQINSRYWCNDGKVPGAVNACHLSCSALLQDNIADAVACAKRVVRDPQGIRAWVAWRNRCQNRDVRQYVQGCGV [T88V] | 70.3 | 119 | 123

Same assay, conditions: Homo sapiens; pH 2.54; Thermal; DSC; glycine-HCl 0.05 M; reversible: yes; structure 1LZ1; whole UniProt chain shown

Variant | Tm [°C] | unfolding enthalpy (calorimetric) [kcal/mol] | unfolding enthalpy (van 't Hoff) [kcal/mol]
MKALIVLGLVLLSVTVQGKVFERCELARTLKRLGMDGYRGISLANWMCLAKWESGYNTRAANYNAGDRSTDYGIFQINSRYWCNDGKTPGAVNACHLSCSALLQDNIADAVACAKRVVRDPQGIRAWVAWRNRCQNRDVRQYVQGCGV [T61A] | 61.1 | 104 | 105

Same assay, conditions: Homo sapiens; pH 2.74; Thermal; DSC; glycine-HCl 0.05 M; reversible: yes; structure 1LZ1; whole UniProt chain shown

Variant | Tm [°C] | unfolding enthalpy (calorimetric) [kcal/mol] | unfolding enthalpy (van 't Hoff) [kcal/mol]
MKALIVLGLVLLSVTVQGKVFERCELARTLKRLGMDGYRGISLANWMCLAKWESGYNTRAANYNAGDRSTDYGIFQINSRYWCNDGKTPGAVNACHLSCSALLQDNIADAVACAKRVVRDPQGIRAWVAWRNRCQNRDVRQYVQGCGV [T61A] | 64.5 | 108 | 109

Same assay, conditions: Homo sapiens; pH 2.9; Thermal; DSC; glycine-HCl 0.05 M; reversible: yes; structure 1LZ1; whole UniProt chain shown

Variant | Tm [°C] | unfolding enthalpy (calorimetric) [kcal/mol] | unfolding enthalpy (van 't Hoff) [kcal/mol]
MKALIVLGLVLLSVTVQGKVFERCELARTLKRLGMDGYRGISLANWMCLAKWESGYNTRAANYNAGDRSTDYGIFQINSRYWCNDGKTPGAVNACHLSCSALLQDNIADAVACAKRVVRDPQGIRAWVAWRNRCQNRDVRQYVQGCGV [T61A] | 67.1 | 111 | 112
